Assay results from article PMC3823233 (Nature structural & molecular biology, 2013).

B1: PGT 135 Fab (Fab, V domains shown)
VH: QLQMQESGPGLVKPSETLSLSCTVSGDSIRGGEWGDKDYHWGWVRHSAGKGLEWIGSIHWRGTTHYKESLRRRVSMSIDTSRNWFSLRLASVTAADTAVYFCARHRHHDVFMLVPIAGWFDVWGPGVQVTVSS
VL: EIVMTQSPDTLSVSPGETVTLSCRASQNINKNLAWYQYKPGQSPRLVIFETYSKIAAFPARFVASGSGTEFTLTINNMQSEDVAVYYCQQYEEWPRTFGQGTKVDIK
B2: PGT 135 IgG (antibody, V domains shown)
VH: B1 VH
VL: B1 VL

Assays:
[1] = biological target: BG505 SOSIP.664 gp140 trimer (HIV-1 clade A, isolate BG505 …, stabilised, glycosylated)
gp120 from strain JRCSF = gp120 from strain JRCSF (HIV-1 (isolate JRCSF), UniProt P20871); assay: ELISA
gp120 from strain JRFL = gp120 from strain JRFL (HIV-1 clade B, isolate JR-FL, UniProt Q75760, strain); assay: ELISA

Binder | stoichiometry N [1] | binding result (gp120 from strain JRCSF) | binding result (gp120 from strain JRFL)
B1 | 3 Fabs per trimer |  | 
B2 |  | binds | binds
